Experiments:
human podocalyxin [1] = target: T1, human podocalyxin (human); assay: FACS, isotype control, hPodo/MDA cells
T1 chain: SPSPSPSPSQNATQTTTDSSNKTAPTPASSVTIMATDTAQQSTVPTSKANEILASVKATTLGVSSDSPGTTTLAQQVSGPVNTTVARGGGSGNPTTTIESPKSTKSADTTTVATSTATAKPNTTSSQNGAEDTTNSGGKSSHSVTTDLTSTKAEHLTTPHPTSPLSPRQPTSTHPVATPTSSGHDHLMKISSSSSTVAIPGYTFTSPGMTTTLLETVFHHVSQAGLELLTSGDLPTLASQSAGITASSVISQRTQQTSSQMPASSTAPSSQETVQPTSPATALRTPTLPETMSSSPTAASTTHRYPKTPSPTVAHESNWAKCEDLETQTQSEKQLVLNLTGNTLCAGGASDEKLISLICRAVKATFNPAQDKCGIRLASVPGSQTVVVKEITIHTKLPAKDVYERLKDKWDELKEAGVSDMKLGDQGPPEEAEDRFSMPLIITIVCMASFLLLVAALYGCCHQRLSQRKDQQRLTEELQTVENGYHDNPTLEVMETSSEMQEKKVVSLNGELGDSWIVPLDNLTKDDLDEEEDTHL

human podocalyxin [2] = target: T1, human podocalyxin; assay: cross competition FACS on MDA-MB-231 cells; unlabeled antibody 25 ug/mL; detected antibody: B-Herceptin 5 ug/mL (control, its target on the cells not given)
human podocalyxin [3] = target: T1, human podocalyxin; assay: cross competition FACS on MDA-MB-231 cells; unlabeled antibody 25 ug/mL; detected antibody: B-Ova 12 5 ug/mL (control)
human podocalyxin [4] = target: T1, human podocalyxin; assay: cross competition FACS on MDA-MB-231 cells; unlabeled antibody 25 ug/mL; competitor and detected antibody: B-3G2.2 5 ug/mL
human podocalyxin [5] = target: T1, human podocalyxin; assay: cross competition FACS on MDA-MB-231 cells; unlabeled antibody 25 ug/mL; detected antibody: B-mIgG1 5 ug/mL (control)
human podocalyxin [6] = target: T1, human podocalyxin; assay: cross competition FACS on MDA-MB-231 cells; unlabeled antibody 25 ug/mL; competitor and detected antibody: biotinylated Rb/Hu Podo83 5 ug/mL
human podocalyxin [7] = target: T1, human podocalyxin; assay: flow cytometry, isotype control, OVCAR10 cells
human podocalyxin [8] = target: T1, human podocalyxin; assay: flow cytometry, isotype control, T47-D cells
human podocalyxin [9] = target: T1, human podocalyxin; assay: flow cytometry, isotype control, OVCAR3 cells
human podocalyxin [10] = target: T1, human podocalyxin; assay: flow cytometry, isotype control, SKOV3 cells
human podocalyxin [11] = target: T1, human podocalyxin; assay: flow cytometry, isotype control, 293 HEK cells
human podocalyxin [12] = target: T1, human podocalyxin; assay: flow cytometry, isotype control, MCF7 cells
human podocalyxin [13] = target: T1, human podocalyxin; assay: flow cytometry, isotype control, MDA-MB-231 cells
human podocalyxin [14] = target: T1, human podocalyxin; assay: flow cytometry, isotype control, HUVEC cells
human podocalyxin [15] = target: T1, human podocalyxin; assay: flow cytometry, isotype control, CaOV3 cells
human podocalyxin [16] = target: T1, human podocalyxin; assay: flow cytometry, isotype control, A172 cells
human podocalyxin [17] = target: T1, human podocalyxin; assay: flow cytometry, control antibody, HUVEC cells
human podocalyxin [18] = target: T1, human podocalyxin; assay: flow cytometry, control antibody, T47-D cells
human podocalyxin [19] = target: T1, human podocalyxin; assay: flow cytometry, control antibody, MDA-MB-231 cells
human podocalyxin [20] = target: T1, human podocalyxin; assay: flow cytometry, control antibody, OVCAR3 cells
human podocalyxin [21] = target: T1, human podocalyxin; assay: flow cytometry, control antibody, 293 HEK cells
human podocalyxin [22] = target: T1, human podocalyxin; assay: flow cytometry, control antibody, A172 cells
human podocalyxin [23] = target: T1, human podocalyxin; assay: flow cytometry, control antibody, MCF7 cells
human podocalyxin [24] = target: T1, human podocalyxin; assay: flow cytometry, control antibody, CaOV3 cells
human podocalyxin [25] = target: T1, human podocalyxin; assay: flow cytometry, control antibody, OVCAR10 cells
human podocalyxin [26] = target: T1, human podocalyxin; assay: flow cytometry, supernatant 1:5, MDA-MB-231 cells
human podocalyxin [27] = target: T1, human podocalyxin; assay: flow cytometry, supernatant 2:15 (so in the source), hPodo/MDA-MB-231 transient transfectants
human podocalyxin [28] = target: T1, human podocalyxin; assay: flow cytometry, supernatant 2:15 (so in the source), MDA-MB-231 cells
human podocalyxin [29] = target: T1, human podocalyxin; assay: flow cytometry titration on 293-6E cells (endogenous podocalyxin), 24 hours at 4 C
human podocalyxin [30] = target: T1, human podocalyxin; assay: kinetic exclusion assay (KinExA 3200), MDA-MB-231 cells
human podocalyxin [31] = target: T1, human podocalyxin; assay: flow cytometry, supernatant 1:125, MDA-MB-231 cells
human podocalyxin [32] = target: T1, human podocalyxin; assay: flow cytometry, supernatant neat, MDA-MB-231 cells
human podocalyxin [33] = target: T1, human podocalyxin; assay: flow cytometry, supernatant 1:5, hPodo/MDA-MB-231 transient transfectants
human podocalyxin [34] = target: T1, human podocalyxin; assay: flow cytometry, supernatant neat, hPodo/MDA-MB-231 transient transfectants
human podocalyxin [35] = target: T1, human podocalyxin; assay: flow cytometry, supernatant 1:125, hPodo/MDA-MB-231 transient transfectants
human podocalyxin [36] = target: T1, human podocalyxin; assay: flow cytometry titration on 293-6E cells (endogenous podocalyxin), 48 hours at 4 C
[37] = target: human podocalyxin (human); assay: FACS, hPodo/MDA cells (MDA-MB-231 transfected with human podocalyxin cDNA)
[38] = target: human podocalyxin (human); assay: flow cytometry, supernatant neat, MDA-MB-231 cells; remark: listed apart in the source
[39] = target: human podocalyxin (human); assay: flow cytometry, supernatant 2:15 (so in the source), MDA-MB-231 cells; remark: listed apart in the source
[40] = target: human podocalyxin (human); assay: flow cytometry, supernatant 1:5, hPodo/MDA-MB-231 transient transfectants; remark: listed apart in the source
[41] = target: human podocalyxin (human); assay: flow cytometry, supernatant 2:15 (so in the source), hPodo/MDA-MB-231 transient transfectants; remark: listed apart in the source
[42] = target: human podocalyxin (human); assay: flow cytometry, supernatant neat, hPodo/MDA-MB-231 transient transfectants; remark: listed apart in the source
[43] = target: human podocalyxin (human); assay: flow cytometry, supernatant 1:5, MDA-MB-231 cells; remark: listed apart in the source
[44] = target: human podocalyxin (human); assay: flow cytometry, supernatant 1:125, hPodo/MDA-MB-231 transient transfectants; remark: listed apart in the source
[45] = target: human podocalyxin (human); assay: flow cytometry, supernatant 1:125, MDA-MB-231 cells; remark: listed apart in the source

## hIgG2 (antibody)
Human podocalyxin [1]
  FACS signal (name not given): 533

## mIgG1 (antibody)
Human podocalyxin [2]
  FACS signal (name not given): 4810
Human podocalyxin [3]
  FACS signal (name not given): 458
Human podocalyxin [4]
  FACS signal (name not given): 26600
Human podocalyxin [5]
  FACS signal (name not given): 414
Human podocalyxin [6]
  FACS signal (name not given): 124000

## hIgG1 (antibody)
Human podocalyxin [1]
  FACS signal (name not given): 544

## MAB1658 (R&D Systems) (antibody)
Human podocalyxin [2]
  FACS signal (name not given): 4720
Human podocalyxin [3]
  FACS signal (name not given): 476
Human podocalyxin [4]
  FACS signal (name not given): 26900
Human podocalyxin [5]
  FACS signal (name not given): 431
Human podocalyxin [6]
  FACS signal (name not given): 127000

## 3D3 (Santa Cruz Biotechnology sc23904) (antibody)
Human podocalyxin [2]
  FACS signal (name not given): 4820
Human podocalyxin [3]
  FACS signal (name not given): 450
Human podocalyxin [4]
  FACS signal (name not given): 26400
Human podocalyxin [5]
  FACS signal (name not given): 419
Human podocalyxin [6]
  FACS signal (name not given): 135000

## MsIgG2a (antibody)
Human podocalyxin [7]
  Live cell GeoMean FL (geometric mean fluorescence units): 618
Human podocalyxin [8]
  Live cell GeoMean FL (geometric mean fluorescence units): 787
Human podocalyxin [9]
  Live cell GeoMean FL (geometric mean fluorescence units): 708
Human podocalyxin [10]
  Live cell GeoMean FL (geometric mean fluorescence units): 485
Human podocalyxin [11]
  Live cell GeoMean FL (geometric mean fluorescence units): 556
Human podocalyxin [12]
  Live cell GeoMean FL (geometric mean fluorescence units): 1130
Human podocalyxin [13]
  Live cell GeoMean FL (geometric mean fluorescence units): 478
Human podocalyxin [14]
  Live cell GeoMean FL (geometric mean fluorescence units): 484
Human podocalyxin [15]
  Live cell GeoMean FL (geometric mean fluorescence units): 892
Human podocalyxin [16]
  Live cell GeoMean FL (geometric mean fluorescence units): 797

## Control Rb/Hu IgG1 (antibody)
Human podocalyxin [17]
  Live cell GeoMean FL (geometric mean fluorescence units): 489
Human podocalyxin [18]
  Live cell GeoMean FL (geometric mean fluorescence units): 667
Human podocalyxin [19]
  Live cell GeoMean FL (geometric mean fluorescence units): 477
Human podocalyxin [20]
  Live cell GeoMean FL (geometric mean fluorescence units): 629
Human podocalyxin [21]
  Live cell GeoMean FL (geometric mean fluorescence units): 446
Human podocalyxin [22]
  Live cell GeoMean FL (geometric mean fluorescence units): 644
Human podocalyxin [23]
  Live cell GeoMean FL (geometric mean fluorescence units): 657
Human podocalyxin [24]
  Live cell GeoMean FL (geometric mean fluorescence units): 767
Human podocalyxin [25]
  Live cell GeoMean FL (geometric mean fluorescence units): 653

B1: huPodo 83 1:1 (humanized anti-podocalyxin antibody 83, version 1) (antibody, V domains shown)
VH: EVQLVESGGGLVQPGGSLRLSCAASGIDLSSYAMGWVRQAPGKGLEWVSFIYASGSIFYASWAKGRFTISRDNSKNTLYLQMNSLRAEDTAVYYCARAGYYFGGNYDLNLWGQGTLVTVSS
VL: DIQMTQSPSSLSASVGDRVTITCQASQSISNYLAWYQQKPGKVPKLLIYRASTLASGVPSRFSGSGSGTDFTLTISSLQPEDVATYYCQQGYVSNNLDNIFGGGTEVVVK
Human podocalyxin [26]
  FACS signal (name not given): 112000
Human podocalyxin [27]
  FACS signal (name not given): 157000
Human podocalyxin [28]
  FACS signal (name not given): 91500
Human podocalyxin [29]
  EC50: 0.0331 µg/mL
Human podocalyxin [30]
  Kd: 0.26 nM
Human podocalyxin [31]
  FACS signal (name not given): 39400
Human podocalyxin [32]
  FACS signal (name not given): 125000
Human podocalyxin [33]
  FACS signal (name not given): 128000
Human podocalyxin [34]
  FACS signal (name not given): 124000
Human podocalyxin [35]
  FACS signal (name not given): 61600
Human podocalyxin [36]
  IC50: 0.0355 µg/mL

B2: Rb VH, Vk 1:1 (Podo 83 rabbit VH, human CH1-CH3, human Ck, and humanized Vk) (antibody, V domains shown)
VH: QSLAESGGRLVTPGTPLTLTCTASGIDLSSYAMGWVRQAPGKGLEYIGFIYASGSIFYASWAKGRFTISKTSSTTVDLKMTSLTTEDTATYFCARAGYYFGGNYDLNLWGQGTLVTVSS
VL: B1 VL
Human podocalyxin [26]
  FACS signal (name not given): 115000
Human podocalyxin [27]
  FACS signal (name not given): 76400
Human podocalyxin [28]
  FACS signal (name not given): 94800
Human podocalyxin [31]
  FACS signal (name not given): 47700
Human podocalyxin [32]
  FACS signal (name not given): 130000
Human podocalyxin [33]
  FACS signal (name not given): 124000
Human podocalyxin [34]
  FACS signal (name not given): 137000
Human podocalyxin [35]
  FACS signal (name not given): 74500

B3: huPodo 83 2:1 (humanized anti-podocalyxin antibody 83, version 2) (antibody, V domains shown)
VH: EVQLVESGGGLVQPGGSLRLSCAASGIDLSSYAMGWVRQAPGKGLEWVSFIYASGSIFYASWAKGRFTISRDNSNTLYLQMNSLRAEDTAVYYCARAGYYFGGNYDLNLWGQGTLVTVSS
VL: B1 VL
Human podocalyxin [26]
  FACS signal (name not given): 105000
Human podocalyxin [27]
  FACS signal (name not given): 79400
Human podocalyxin [28]
  FACS signal (name not given): 67200
Human podocalyxin [29]
  EC50: 0.0519 µg/mL
Human podocalyxin [31]
  FACS signal (name not given): 22300
Human podocalyxin [32]
  FACS signal (name not given): 123000
Human podocalyxin [33]
  FACS signal (name not given): 108000
Human podocalyxin [34]
  FACS signal (name not given): 139000
Human podocalyxin [35]
  FACS signal (name not given): 37700
Human podocalyxin [36]
  IC50: 0.052 µg/mL

B4: Mouse anti-podocalyxin antibody 3G2 (antibody, V domains shown)
VH: EVQLQQSGPELVKPGASVKMSCKASGYTFTSYVMHWVKQKPGQGLEWIGYIHPYNDGTNYNEKFKGKATLTSDKSSNTAYMELSSLTSEDSAVYYCARSWDWYFDVWGAGTTVTVSS
VL: QIVLTQSPAIMSASPGEKVTMTCSANSNVRYIHWHQQKSGTSPKRWIYDTSKLSSGVPARFSGSGSGTSYSLTISNMEAEDAATYYCQQWISNPLTFGAGTKLELK
Human podocalyxin [30]
  Kd: 3.34 nM

B5: Rb/huPodo 83 hIgG2 (antibody, V domains shown)
VH: CQSLAESGGRLVTPGTPLTLTCTASGIDLSSYAMGWVRQAPGKGLEYIGFIYASGSIFYASWAKGRFTISKTSSTTVDLKMTSLTTEDTATYFCARAGYYFGGNYDLNLWGQGTLVTVSS
VL: DIVLTQTPASVEVAVGGTVTIKCQASQSISNYLAWYQRKPGQPPRLLIYRASTLASGVSSRFKGSGSGTQFTLTISGVECADAATYYCQQGYVSNNLDNIFGGGTEVVVK
modifications: human IgG2 constant regions
[37]
  FACS signal (name not given): 98300

B6: Rabbit Podo 83 (Parental rabbit antibody) (antibody, V domains shown)
VH: B5 VH
VL: B5 VL
modifications: rabbit constant regions
[38]
  FACS signal (name not given): 179000
[39]
  FACS signal (name not given): 53700
[40]
  FACS signal (name not given): 139000
[41]
  FACS signal (name not given): 89700
[42]
  FACS signal (name not given): 90800
[43]
  FACS signal (name not given): 129000
[44]
  FACS signal (name not given): 24100
[45]
  FACS signal (name not given): 15500

Reference: patent publication US20160264663A1 (published 2016)
